{
  "source": "patent US20250027068",
  "proteins": {"B1": {"name": "PRT-500 (protein)", "chain": "MVTSVWTKGVTPPADFTQGEDVFHAPYVANQGWYDITKAFDGGDDLLCGAATAGNMLHWWFDQNKEYIEAYLKKHPEKQKIMFGDQELLDVRKAINTKGSQKNSELFNYFRDKAFPNLSARRLGVMPDLVLDMFINGYYLNVTKTQTTDVNRTYQEKDKRGGIFDAVFTRGDQSKLLTSRHDLKNKGLKEISDLIKQELTEGKALGLSHTYANVRINHVINLWGADFDSDGNLKAIYVTDSDSNASIGMKKYFVGVNSAGKVAISAKEIKEDNIGAQVLGLFTLSTGQDIWNQTNLEHHHHHH"}, "B2": {"name": "PRT-519 (protein)", "chain": "MVTSVWTKGVTPPTDFIKGEDVFHAPYKAGQGWYDITKTFNGKDNLLCGAATAGNMLHWWFDQNKEYIEAYLKKHPEKQKIIFNNQELFDLKAAINTKGSQKNSELFNYFRDKAFPNLSARRLGVFPDLVLDMFINGYYLNVTKTQTTDVNRTYQEKDKRGGIFDAVFTRGVQSKLLTSRHDLKNKGLKEISDLIKQELTEGKALGLSHTYANVRINHVINLWGADFDSDGNLKAIYVTDSDTNASIGMKKYFVGVNSAGKVAISAKEIKEDNIGAQVLGLFTLSTGQDIWNQTNLEHHHHHH"}, "B3": {"name": "PRT-453 (protein)", "chain": "MVTSVWTKGVTPPANFTQGEDVFHAPYKANQGWYDITKTFNGKDDLLCGAATAGNMLHWWFDQNKDQIEAYLKEHPEKQKINFNGEQMFDVKEAIDTKDDQTNSKLFEYFKEKAFPYLSTKHLGVFPDHVLDMFINGYRLSLTNHGPTPVKEGSKDPRGGIFDAVFTRGDQSKLLTSRHDLKNKTLKEISDLIKQELTEGKALALSHTYANVRINHVINLWGADFDSNGNLEAIYVTDSDSNASIGMKKYFVGVNSAGKVAISAKEIEDDNIGAQVLGLFTLSTGQDIWNQTNLEHHHHHH"}, "B4": {"name": "PRT-523 (protein)", "chain": "MITSVWTKGVTPPTDFIKGEDVFHAPYKAGQGWYDITKTFNGKDNLLCGAATAGNMLHWWFDQNKEEIEAYLKKHPEKQKIIFNNQELFDLKAVINTKDSQTNSALFNYFKDKAFPNLSARRLGVFPDLVLDMFINGYYLNVYKTQTTDVNRTYQTKDRRGGIFDAVFTRGVQSKLLTERHDLKNKTLKEISDLIKQELTEGKALGLSHTYANVRINHVINLWGADFDSNGNLEAIYVTDSDTNASIGMKKYFVGVNSAGKVAISAKEIKEDNIGAQVLGLFTLSTGQDIWNQTNLEHHHHHH"}, "B5": {"name": "PRT-614 (protein)", "chain": "MQITSVWTKGVKPLTPEQFRYNNEDVIHAPYLAHQGWYDITKAFDGKDNLLCGAATAGNMLHWWFDQNKTEIEAYLSKHPEKQKIIFNNQELFDLRAAIDTKDSQTNSQLFNYFRDKAFPNLSARQLGVMPDLVLDMFINGYYLNVFKTQSTDVNRPYQDKDKRGGIFDDVFTRGDQTTLLTARHDLKNGGLNDISTIIKQELTEGRALALSHTYANVSISHVINLWGADFNAEGNLEAIYVTDSDANASIGMKKYKVGINAHGHVAISAKKIEGENIGAQVLGLFTLSSGKDIWQKLSLEHHHHHH"}, "B6": {"name": "PRT-662 (protein)", "chain": "B5 chain with K12T, I27F, D100N, D170A, G190K, I198L, K257F, H263S"}},
  "note": "Numbering of substitutions follows the chain as printed.",
  "data": [
    {"biological_target": "pooled human IgG (human IgG1, 2, 3 and 4)", "units": {"Enzyme Activity Endpoint Assay: Fab′2": "ng/µL", "Enzyme Activity Endpoint Assay: Fc": "ng/µL", "Enzyme Activity Endpoint Assay: IgG": "ng/µL", "Enzyme Activity Endpoint Assay: scIgG": "ng/µL"}, "values": [
      {"protein": "B1", "Enzyme Activity Endpoint Assay: Fab′2": 25, "Enzyme Activity Endpoint Assay: Fc": 30, "Enzyme Activity Endpoint Assay: IgG": 0, "Enzyme Activity Endpoint Assay: scIgG": 0},
      {"protein": "B2", "Enzyme Activity Endpoint Assay: Fab′2": 0, "Enzyme Activity Endpoint Assay: Fc": 17, "Enzyme Activity Endpoint Assay: IgG": 0, "Enzyme Activity Endpoint Assay: scIgG": 0},
      {"protein": "B3", "Enzyme Activity Endpoint Assay: Fab′2": 1620, "Enzyme Activity Endpoint Assay: Fc": 607, "Enzyme Activity Endpoint Assay: IgG": 17, "Enzyme Activity Endpoint Assay: scIgG": 0},
      {"protein": "B4", "Enzyme Activity Endpoint Assay: Fab′2": 17, "Enzyme Activity Endpoint Assay: Fc": 24, "Enzyme Activity Endpoint Assay: IgG": 0, "Enzyme Activity Endpoint Assay: scIgG": 0},
      {"protein": "B5", "Enzyme Activity Endpoint Assay: Fab′2": 0, "Enzyme Activity Endpoint Assay: Fc": 0, "Enzyme Activity Endpoint Assay: IgG": 0, "Enzyme Activity Endpoint Assay: scIgG": 0},
      {"protein": "B6", "Enzyme Activity Endpoint Assay: Fab′2": 8, "Enzyme Activity Endpoint Assay: Fc": 13, "Enzyme Activity Endpoint Assay: IgG": 0, "Enzyme Activity Endpoint Assay: scIgG": 0}
    ]}
  ]
}
